These results are taken from paper PMC4474532.

The target in this test is PERK luminal domain W165A (UniProt Q9NZJ5). Briefly: sedimentation velocity AUC.
Chain of PERK luminal domain W165A (Q9NZJ5 105-403 W164A/Q166R): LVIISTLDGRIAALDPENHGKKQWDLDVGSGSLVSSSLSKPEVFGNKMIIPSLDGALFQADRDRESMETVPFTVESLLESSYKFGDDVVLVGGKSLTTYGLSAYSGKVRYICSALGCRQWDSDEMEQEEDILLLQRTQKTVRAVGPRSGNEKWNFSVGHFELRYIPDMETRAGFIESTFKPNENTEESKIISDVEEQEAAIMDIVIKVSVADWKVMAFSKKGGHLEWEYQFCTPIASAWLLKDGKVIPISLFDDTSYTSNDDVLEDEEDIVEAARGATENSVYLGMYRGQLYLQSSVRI

In the case of “human PERK luminal domain (residues 105–403) (from UniProt Q9NZJ5) W165A”, the other: % (change in tetramer against wild-type) (parent: 0) was -23%. For the same substance, the other: tetramer (relative to dimer = 1) (parent: 0.73) amounted to 0.56.
